Biological target: Concanavalin A (UniProt P02866)
Experiment: ConA sepharose affinity chromatography, load and eluate by RP-HPLC

Analysis 1 Eluate Recovery % (w/w) (ConA binding material) | Analysis 2 Eluate Recovery % (w/w) (ConA binding material) | Substance
0.15 % (w/w) |  | recombinant transferrin (S32A, S415A, T613A) (from UniProt P02787 20-698) (ligand)
0.25 % (w/w) | 0.26 % (w/w) | recombinant transferrin (S32C, S415A, T613A) (from UniProt P02787 20-698) (ligand)
